Test: yeast display, Sf9 membrane polyspecificity reagent, FACS + sequencing; frameworks hold sequencing errors
Summary of the method: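 Synthetic nanobody libraries on Saccharomyces cerevisiae BJ5465 were galactose-induced for 36–48 hours, stained 1 hour at 4 °C with 10% biotinylated, detergent-solubilized Sf9 membrane reagent and enriched on streptavidin microbeads. FACS then separated cells into low and high (top ~1%) gates by anti-HA (expression) and streptavidin (reagent binding) fluorescence. Genes were colony-PCR amplified, MiSeq 2 × 250 sequenced and CDR-length filtered. A clone's polyreactivity label is that of its gate of origin.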

Row | Sequence | polyreactivity (PSR sort gate)
1 | QVQLVESGGGLVQAGGSLRLSCAASGSIFWGNAMGWYRQAPGKERELVATISWSAGSTYYADSVKGRFTISRDNAMNTVYLQMNSLKPDDTAVYYCATDVRHSTLYYYWGQGTQVTVSS | low polyreactivity
2 | QVQLVESGGGLVQAGGSLRLSCAASGSIFWGYAMGWYRQAPGKERELVATIRNRGGSTYYADSVKGRFTISRDNAKNTVYLQMNSLKPEDTAVYYCAARFPHRHYLLYTYDYWGQGTQVTVSS | low polyreactivity
3 | QVQLVESGGGLVQAGGSLRLSCAASGSIFWKYAMGWYRQAPGKERELVAAISRSSSTTYYADSVKGRFTISRDNAKNTVYLQMNSLKPEDTAVYYCAADWRTKGYDSLGQGTQVTVSS | high polyreactivity
4 | QVQLVESGGGLVQAGGSLRLSCAASGSIFWLYAMGCYRQAPGKERELVAGISQNGGSTTYADSVKGRFTISRDNAKNTVYFQMNSLKPEDTAVYYCAAKRYGPFKYGYWGQGTQVTVSS | high polyreactivity
5 | QVQLVESGGGLVQAGGSLRLSCAASGSIFWLYAMGWYRQAPGKERELVAAIDSGDSTKYADSVKGRFTISRDNAKTTVYLQMNSLKPEDTAVYYCNASRRYHVRAPYDYWGQGTQVTLSS | low polyreactivity
6 | QVQLVESGGGLVQAGGSLRLSCAASGSIFWLYAMGWYRQAPGKERELVAAITWSGGRTYYADSVKGRFTISRDTAKNTVYLQMNSLKPEDTAVYYCARRQWPWYSNPARGGKYDYWGQGTQVTVSS | low polyreactivity
7 | QVQLVESGGGLVQAGGSLRLSCAASGSIFWNNAMGWYRQAPGKERELVAAISKSGTRTYYADSVKGRFTISRDNAKNTFYLQMNSLKPEDTAVYYCAKDPYGRLQPRPRFGYWGQGTQVTVSS | high polyreactivity
8 | QVQLVESGGGLVQAGGSLRLSCAASGSIFWNYAMGWYRQAPGKERELVASITSGGSTNYADSVKGRFTISRDNEKNTVYLQMNSLKQEDTAVYSCNTDDDSSYTGYYSWGQGTQVTVSS | low polyreactivity
9 | QVQLVESGGGLVQAGGSLRLSCAASGSIFWPNAMGWYRQAPGKERELVASITRAGSTNYADSVKGRFTISRDNAQNTVYLQMNSLKPEDTAVYYCAAYFWGGYNYWGQGTQVTVSS | low polyreactivity
10 | QVQLVESGGGLVQAGGSLRLSCAASGSIFWPNVMGWYRQAPGKDRELVAAIRSDGSTYYADSVKGRFTISRDNAKNTVYLQMNSLKPEDAAVYYCATKFFRQTIYRAKYNYWGQGTQVTVSS | low polyreactivity
11 | QVQLVESGGGLVQAGGSLRLSCAASGSIFWPYAKGWYRQAPGKERELVAAISSSGTSTYYADSVKGRFTISRDNAKNTVYLQMNSLKPEDTAVYYCAKELFTYPYEYWGQGTQVTVSS | low polyreactivity
12 | QVQLVESGGGLVQAGGSLRLSCAASGSIFWQNTMGWYRQAPGKERELVAAISWSGGRTYYADSVKGRFTISRDNAKNTVYLQMNSLKPEDTAVYYCAAAFSPGWWSRHTYDYDYWGQGTQVTVSS | high polyreactivity
13 | QVQLVESGGGLVQAGGSLRLSCAASGSIFWRNAMGWYRQAPGKERELVAAISRVGSTNYADSVKGRFTISRDNAKNTVYLQMNSLKPQDTAVYYCAVDGGEFSSYGYWGQGTQVTVSS | low polyreactivity
14 | QVQLVESGGGLVQAGGSLRLSCAASGSIFWRNMGWYRQAPGKERELVAAISYGSVSTYYADSVKGRFTISRDNAKNTVYLQMNSLKPEDTAVYYCAATLPGWYNEHDSWGLGTQVTVSS | low polyreactivity
15 | QVQLVESGGGLVQAGGSLRLSCAASGSIFWRYAMGRYRQAPGKEREVVAAISGSGVRTSYADSVKGRFTISRDNAKNTVYLQMNSLKAEDTAVYYCATDIRSGRYYWGQGTQVTVSS | high polyreactivity
16 | QVQLVESGGGLVQAGGSLRLSCAASGSIFWRYAMGWYRQAPGKERELVAAINYSTTRTYYADSVKGRFTISLDNAKNTVYLQMNSLKPEDTAVYYCAADSRVDEGEYWGQGTQVTVSS | high polyreactivity

Row | Sequence | polyreactivity (PSR sort gate)
17 | QVQLVESGGGLVQAGGSLRLSCAASGSIFWSYAMGWYRQAPGKERELVAAITRSGGSTYYADSVKGRFTISRDNAKNTVYLQINSLKPEDTAVDYCNAATPYSWGYRRGYWGQGTQVTVSS | high polyreactivity
18 | QVQLVESGGGLVQAGGSLRLSCAASGSIFWSYAMGWYRQAPGKERELVADSVKGRFTISRDNAKNTVYLQMNSLKPEDTAVYYCAADSPSAPVYLYDYWGQGTQVTVSS | low polyreactivity
19 | QVQLVESGGGLVQAGGSLRLSCAASGSIFWSYAMGWYRQAPGKERELVASISRSTGRTRYADSVKGRFTISRDNAKNTVYLQMNSLKPEDTAVYYCAATRRAGFTTAKFDYWGQGTQVTVSS | high polyreactivity
20 | QVQLVESGGGLVQAGGSLRLSCAASGSIFWTNAMGWYRQAPGKERELVAAIRVSTGSTYYADSVKGRFTISRDIAKNNVYLQMNSLKPEDTAVYYCNADLYIYEWYPALHSNDYWGQGTQVTVSS | low polyreactivity
21 | QVQLVESGGGLVQAGGSLRLSCAASGSIFWVNAMGWYRQAPGKERELVAAITWSAGSTYYADSVKGRFTISRDNAKNTVYLQMNSLKPEDTAVYYCAAGGAWYYWTLDYWGQGTQVTVSS | low polyreactivity
22 | QVQLVESGGGLVQAGGSLRLSCAASGSIFWVYAMGWYRQAPGKERELVAAISSGGSTNYADSVKGRFTISRDNAKNTVYLQMNSLKPEDTAVYYCAAVIRTVRERYGFWGQGTQVTVSS | high polyreactivity
23 | QVQLVESGGGLVQAGGSLRLSCAASGSIFWVYAMGWYRQAPGKERELVAVIDWSGDSTYYADSVKGRFTISRDNAKNTVYLQMNSLKPEDTAVYYCSAEVYVDYTGYSYFDYPYDYWGQGTQVTVSS | low polyreactivity
24 | QVQLVESGGGLVQAGGSLRLSCAASGSIFWVYVLGWYRQAPGKERELVAAITNGGSTDYADSVKGRFTISRDNAKNTVYLQMNSLKPEDTAVYYCAKRSTIWGRILITYDYWGQGTQVTVSS | low polyreactivity
25 | QVQLVESGGGLVQAGGSLRLSCAASGSIFWYNAMGWYRQAPGKERELVAAIRWRGGSTYYADSVKGRFTISRDNAKNTVYLQMNSLKPEDTAVYDCAAQVYVSQLYTSYYYWGQGTQVTVSS | high polyreactivity
26 | QVQLVESGGGLVQAGGSLRLSCAASGSIFWYNTMGWYRQAPGKERELVAAISSSGGTTYYADSVKGRFTISRDNAKNTVYLQMNSLKPEDTAVYYCAATVGDAYYEYDYWGQGTQVTVSS | low polyreactivity
27 | QVQLVESGGGLVQAGGSLRLSCAASGSIFWYNTMGWYRQAPGKERELVASISWDGGTYYADSVKGRFTISRDNAKNTVYLQMNSLKPEDTAVYYCNVAWYWGYDYWGQGTQVTVSS | low polyreactivity
28 | QVQLVESGGGLVQAGGSLRLSCAASGSIFWYYAMGWSRQAPGKERELVASISSSGGSTYYADSVKGRFTISRDNAKNTVYLQMNSLKPEDTAVYYCAVRSPYRLSRWRVGYWGQGTQVTVSS | high polyreactivity
29 | QVQLVESGGGLVQAGGSLRLSCAASGSIFWYYAMGWYRQAPGKERELDASITRGGSTKYADSVKGRFTISLDNAKNPVYLQMNSLKPEDTAVYYCATTYRLYRVNYDYYWGQGTQVSVSS | high polyreactivity
30 | QVQLVESGGGLVQAGGSLRLSCAASGSIFYANAMGWYRQAPGKERELVAAISRSGGRTYYADSVKGRFTISRDNSKNTVYLQMNSLKPEDTAVYYCAADTGRYRDSNYWGQGTQVTVSS | high polyreactivity
31 | QVQLVESGGGLVQAGGSLRLSCAASGSIFYDKDSGWYRQAPGKERELFAAITSTGGSTYYADSVKGRFTISRDHAKNTVYLQMNSLKPEDTAVYDCNTPTYLYWGFNTYDYWGQGTQFTVSS | low polyreactivity
32 | QVQLVESGGGLVQAGGSLRLSCAASGSIFYDNAMGWYRQAPGKERELVAAITIDGSTYADSVKGRFTISRDNAKYTVYLQMNSLKPEDTAVYYCAAEWDTNFWYDYWGQGTQVTVSS | low polyreactivity

Source: the nanobody polyreactivity screen of Harvey et al. (2022)
